Values belong to the binder of their own block, whether it stands above or below them.
Biological target: T1, glutathione S-transferase-calreticulin (GST-CRT) (UniProt P15253 18-418)
T1 construct: calreticulin from the plasmid pGEX-3X-GST-CRT (Baksh and Michalak, 1991; from M. Michalak); also called WT GST-CRT; GST-CRT-WT; source: E. coli BL21, purified (glutathione sepharose)
T1 sequence (looked up): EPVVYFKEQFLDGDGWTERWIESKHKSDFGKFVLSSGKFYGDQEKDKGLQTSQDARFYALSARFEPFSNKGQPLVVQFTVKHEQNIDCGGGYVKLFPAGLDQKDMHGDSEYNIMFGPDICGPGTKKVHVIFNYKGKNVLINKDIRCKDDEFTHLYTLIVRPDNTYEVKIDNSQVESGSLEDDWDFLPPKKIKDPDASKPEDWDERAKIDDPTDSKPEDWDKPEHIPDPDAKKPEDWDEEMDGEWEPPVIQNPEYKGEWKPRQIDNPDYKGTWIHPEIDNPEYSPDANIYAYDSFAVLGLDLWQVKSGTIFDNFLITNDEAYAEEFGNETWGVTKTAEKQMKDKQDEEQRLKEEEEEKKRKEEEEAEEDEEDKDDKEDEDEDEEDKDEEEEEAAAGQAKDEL
Assay: pull-down; GST-CRT or GST-CRT-Y109A on glutathione beads, 16 h at 4 C with lysate (MNT: 20 mM MES, 100 mM NaCl, 30 mM Tris pH 7.5, 0.5% Triton X-100, protease inhibitors, 20 mM NEM) of ALG6-/-, ALG6/UGGT1-/- or ALG6/UGGT2-/- HEK293-EBNA1-6E cells treated with 500 uM DNJ for 14 h; immunoblot; percent reglucosylation = (GST-CRT lane minus Y109A lane) / total in whole cell lysate x 100
Conditions: one partner purified

- percent reglucosylation (bound by GST-CRT minus GST-CRT-Y109A, of the total in the lysate), ALG6/UGGT2-/- cells: 20%
B1: β-hexosaminidase subunit β (HexB), immature ER-localized proHexB (enzyme, human (endogenous in HEK293-EBNA1-6E), UniProt P07686 43-556, looked up)
chain: ARAPSVSAKPGPALWPLPLLVKMTPNLLHLAPENFYISHSPNSTAGPSCTLLEEAFRRYHGYIFGFYKWHHEPAEFQAKTQVQQLLVSITLQSECDAFPNISSDESYTLLVKEPVAVLKANRVWGALRGLETFSQLVYQDSYGTFTINESTIIDSPRFSHRGILIDTSRHYLPVKIILKTLDAMAFNKFNVLHWHIVDDQSFPYQSITFPELSNKGSYSLSHVYTPNDVRMVIEYARLRGIRVLPEFDTPGHTLSWGKGQKDLLTPCYSRQNKLDSFGPINPTLNTTYSFLTTFFKEISEVFPDQFIHLGGDEVEFKCWESNPKIQDFMRQKGFGTDFKKLESFYIQKVLDIIATINKGSIVWQEVFDDKAKLAPGTIVEVWKDSAYPEELSRVTASGFPVILSAPWYLDLISYGQDWRKYYKVEPLDFGGTQKQKQLFIGGEACLWGEYVDATNLTPRLWPRASAVGERLWSSKDVRDMDDAYDRLTRHRCRMVERGIAAQPLYAGYCNHENM
modifications: monoglucosylated N-glycans (reglucosylated by the UGGTs; sites not stated)
notes: beta-hexosaminidase subunit beta, human, endogenous; the immature or ER-localized pro form, not yet processed into three chains; By immunoblot only proHexB was purified by GST-CRT; source: endogenous, lysate of CRISPR-edited HEK293-EBNA1-6E cells (ALG6-/- background), DNJ treated

- percent reglucosylation (bound by GST-CRT minus GST-CRT-Y109A, of the total in the lysate), ALG6/UGGT2-/- cells: 12%
B2: ectonucleotide pyrophosphatase/phosphodiesterase family member 1 (ENPP1) (enzyme, human (endogenous in HEK293-EBNA1-6E), UniProt P22413 1-925, looked up)
chain: MERDGCAGGGSRGGEGGRAPREGPAGNGRDRGRSHAAEAPGDPQAAASLLAPMDVGEEPLEKAARARTAKDPNTYKVLSLVLSVCVLTTILGCIFGLKPSCAKEVKSCKGRCFERTFGNCRCDAACVELGNCCLDYQETCIEPEHIWTCNKFRCGEKRLTRSLCACSDDCKDKGDCCINYSSVCQGEKSWVEEPCESINEPQCPAGFETPPTLLFSLDGFRAEYLHTWGGLLPVISKLKKCGTYTKNMRPVYPTKTFPNHYSIVTGLYPESHGIIDNKMYDPKMNASFSLKSKEKFNPEWYKGEPIWVTAKYQGLKSGTFFWPGSDVEINGIFPDIYKMYNGSVPFEERILAVLQWLQLPKDERPHFYTLYLEEPDSSGHSYGPVSSEVIKALQRVDGMVGMLMDGLKELNLHRCLNLILISDHGMEQGSCKKYIYLNKYLGDVKNIKVIYGPAARLRPSDVPDKYYSFNYEGIARNLSCREPNQHFKPYLKHFLPKRLHFAKSDRIEPLTFYLDPQWQLALNPSERKYCGSGFHGSDNVFSNMQALFVGYGPGFKHGIEADTFENIEVYNLMCDLLNLTPAPNNGTHGSLNHLLKNPVYTPKHPKEVHPLVQCPFTRNPRDNLGCSCNPSILPIEDFQTQFNLTVAEEKIIKHETLPYGRPRVLQKENTICLLSQHQFMSGYSQDILMPLWTSYTVDRNDSFSTEDFSNCLYQDFRIPLSPVHKCSFYKNNTKVSYGFLSPPQLNKNSSGIYSEALLTTNIVPMYQSFQVIWRYFHDTLLRKYAEERNGVNVVSGPVFDFDYDGRCDSLENLRQKRRVIRNQEILIPTHFFIVLTSCKDTSQTPLHCENLDTLAFILPHRTDNSESCVHGKHDSSWVEELLMLHRARITDVEHITGLSFYQQRKEPVSDILKLKTHLPTFSQED
modifications: monoglucosylated N-glycans (reglucosylated by the UGGTs; sites not stated)
notes: ectonucleotide pyrophosphatase/phosphodiesterase family member 1, human, endogenous; source: endogenous, lysate of CRISPR-edited HEK293-EBNA1-6E cells (ALG6-/- background), DNJ treated
